We go through three molecules from patent US20080299072A1.

For assay [1], the target named is CCR5, P51681. As to the kind of experiment: competition SPA, displacement of 125I-MIP-1α from CCR5 CHO membranes (FIG. 2). The following applies: remark: other sources report otherwise. On the technique in general: In a radioligand displacement assay an active substance lowers the binding of a labelled ligand.
Assay [2] deals with CCR5, P51681. As to the kind of experiment: competition SPA, displacement of 125I-MIP-1α from CCR5 CHO membranes. The following applies: remark: other sources report otherwise.

Chain of CCR5, P51681 (P51681 whole entry): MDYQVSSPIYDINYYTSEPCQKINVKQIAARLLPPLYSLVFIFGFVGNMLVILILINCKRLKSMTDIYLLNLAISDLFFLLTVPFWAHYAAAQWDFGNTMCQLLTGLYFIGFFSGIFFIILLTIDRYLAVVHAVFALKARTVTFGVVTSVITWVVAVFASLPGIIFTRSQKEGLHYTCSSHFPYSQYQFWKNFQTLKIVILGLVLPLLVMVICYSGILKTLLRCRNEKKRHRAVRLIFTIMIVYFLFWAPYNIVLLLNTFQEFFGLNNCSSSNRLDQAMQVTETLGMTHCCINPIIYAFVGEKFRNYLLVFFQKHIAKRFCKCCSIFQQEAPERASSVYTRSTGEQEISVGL

B1: PEG-2 kDa-RANTES, P13501 24-91 (ligand)
chain: {mPEG‑ButyrALD 2 kDa}-SPYSSDTTPCCFAYIARPLPRAHIKEYFYTSGKCSNPAVVFVTRKNRQVCANPEKKWVREYINSLEMS
As usually defined, the IC50 is the concentration at which inhibition is half-maximal. Higher therefore signals lower potency. For B1, the IC50 was 3.1 nM with CCR5, P51681 [1] and 10.6 nM in the assay with CCR5, P51681 [2].

B2: PEG-5 kDa-RANTES, P13501 24-91 (ligand)
chain: {mPEG‑ButyrALD 5 kDa}-SPYSSDTTPCCFAYIARPLPRAHIKEYFYTSGKCSNPAVVFVTRKNRQVCANPEKKWVREYINSLEMS
For B2, the IC50 with CCR5, P51681 [1] is 2.2 nM; with CCR5, P51681 [2], 2.8 nM.

B3: Mature wildtype (wt) human RANTES, P13501 24-91 (ligand)
chain: SPYSSDTTPCCFAYIARPLPRAHIKEYFYTSGKCSNPAVVFVTRKNRQVCANPEKKWVREYINSLEMS
Consider B3, for which the IC50 in the assay with CCR5, P51681 [1] came out at 1.3 nM; in the assay with CCR5, P51681 [2] it was 1.6 nM.
